Here are results for five substances from the supplement of paper PMC5998384.

The subject of data set [1] is HeLa Kyoto. The experiment in a line: thermal stability score vs G1/S (z-score of summed log2 fold changes over temperatures); higher = more thermally stable than in G1/S.
Data set [2] has as its system HeLa Kyoto. The experiment in a line: solubility change mitosis vs G1/S (difference of NP-40 vs SDS log2 ratios) (log2 ratio difference); higher = more soluble in mitosis.
Data set [3] deals with HeLa Kyoto. The experiment in a line: solubility in G1/S (NP-40 vs SDS abundance) (log2 ratio); higher = more soluble. The settings on record: cell cycle stage: G1/S.
The subject of data set [4] is HeLa Kyoto. Description: melting temperature (median over replicates), in situ; higher = more thermally stable.
The mark [5] stands for this setting: cell cycle stage: early G1 (4.5 h after nocodazole release).
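Throughout, for melting temperature (median over replicates), in situ: HeLa Kyoto cells synchronized by double thymidine or nocodazole block, proteins quantified by TMT10plex mass spectrometry, three independent biological replicates.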
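Throughout, for solubility change mitosis vs G1/S (difference of NP-40 vs SDS log2 ratios): synchronized HeLa Kyoto cells (double thymidine block for G1/S, nocodazole release for mitosis), protein amounts in NP-40 versus SDS lysates quantified by mass spectrometry, three biological replicates.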
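Throughout, for solubility in G1/S (NP-40 vs SDS abundance): HeLa Kyoto cells arrested at G1/S by double thymidine block, proteins quantified by TMT10plex mass spectrometry in mild NP-40 versus SDS extracts, three biological replicates.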
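Throughout, for thermal stability score vs G1/S (z-score of summed log2 fold changes over temperatures): synchronized HeLa Kyoto cells, proteins quantified by TMT10plex mass spectrometry, three biological replicates, mitosis taken 0.5 h after nocodazole release, G1/S directly after double thymidine block.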

Chain of LRP1 (chain, as listed by the source): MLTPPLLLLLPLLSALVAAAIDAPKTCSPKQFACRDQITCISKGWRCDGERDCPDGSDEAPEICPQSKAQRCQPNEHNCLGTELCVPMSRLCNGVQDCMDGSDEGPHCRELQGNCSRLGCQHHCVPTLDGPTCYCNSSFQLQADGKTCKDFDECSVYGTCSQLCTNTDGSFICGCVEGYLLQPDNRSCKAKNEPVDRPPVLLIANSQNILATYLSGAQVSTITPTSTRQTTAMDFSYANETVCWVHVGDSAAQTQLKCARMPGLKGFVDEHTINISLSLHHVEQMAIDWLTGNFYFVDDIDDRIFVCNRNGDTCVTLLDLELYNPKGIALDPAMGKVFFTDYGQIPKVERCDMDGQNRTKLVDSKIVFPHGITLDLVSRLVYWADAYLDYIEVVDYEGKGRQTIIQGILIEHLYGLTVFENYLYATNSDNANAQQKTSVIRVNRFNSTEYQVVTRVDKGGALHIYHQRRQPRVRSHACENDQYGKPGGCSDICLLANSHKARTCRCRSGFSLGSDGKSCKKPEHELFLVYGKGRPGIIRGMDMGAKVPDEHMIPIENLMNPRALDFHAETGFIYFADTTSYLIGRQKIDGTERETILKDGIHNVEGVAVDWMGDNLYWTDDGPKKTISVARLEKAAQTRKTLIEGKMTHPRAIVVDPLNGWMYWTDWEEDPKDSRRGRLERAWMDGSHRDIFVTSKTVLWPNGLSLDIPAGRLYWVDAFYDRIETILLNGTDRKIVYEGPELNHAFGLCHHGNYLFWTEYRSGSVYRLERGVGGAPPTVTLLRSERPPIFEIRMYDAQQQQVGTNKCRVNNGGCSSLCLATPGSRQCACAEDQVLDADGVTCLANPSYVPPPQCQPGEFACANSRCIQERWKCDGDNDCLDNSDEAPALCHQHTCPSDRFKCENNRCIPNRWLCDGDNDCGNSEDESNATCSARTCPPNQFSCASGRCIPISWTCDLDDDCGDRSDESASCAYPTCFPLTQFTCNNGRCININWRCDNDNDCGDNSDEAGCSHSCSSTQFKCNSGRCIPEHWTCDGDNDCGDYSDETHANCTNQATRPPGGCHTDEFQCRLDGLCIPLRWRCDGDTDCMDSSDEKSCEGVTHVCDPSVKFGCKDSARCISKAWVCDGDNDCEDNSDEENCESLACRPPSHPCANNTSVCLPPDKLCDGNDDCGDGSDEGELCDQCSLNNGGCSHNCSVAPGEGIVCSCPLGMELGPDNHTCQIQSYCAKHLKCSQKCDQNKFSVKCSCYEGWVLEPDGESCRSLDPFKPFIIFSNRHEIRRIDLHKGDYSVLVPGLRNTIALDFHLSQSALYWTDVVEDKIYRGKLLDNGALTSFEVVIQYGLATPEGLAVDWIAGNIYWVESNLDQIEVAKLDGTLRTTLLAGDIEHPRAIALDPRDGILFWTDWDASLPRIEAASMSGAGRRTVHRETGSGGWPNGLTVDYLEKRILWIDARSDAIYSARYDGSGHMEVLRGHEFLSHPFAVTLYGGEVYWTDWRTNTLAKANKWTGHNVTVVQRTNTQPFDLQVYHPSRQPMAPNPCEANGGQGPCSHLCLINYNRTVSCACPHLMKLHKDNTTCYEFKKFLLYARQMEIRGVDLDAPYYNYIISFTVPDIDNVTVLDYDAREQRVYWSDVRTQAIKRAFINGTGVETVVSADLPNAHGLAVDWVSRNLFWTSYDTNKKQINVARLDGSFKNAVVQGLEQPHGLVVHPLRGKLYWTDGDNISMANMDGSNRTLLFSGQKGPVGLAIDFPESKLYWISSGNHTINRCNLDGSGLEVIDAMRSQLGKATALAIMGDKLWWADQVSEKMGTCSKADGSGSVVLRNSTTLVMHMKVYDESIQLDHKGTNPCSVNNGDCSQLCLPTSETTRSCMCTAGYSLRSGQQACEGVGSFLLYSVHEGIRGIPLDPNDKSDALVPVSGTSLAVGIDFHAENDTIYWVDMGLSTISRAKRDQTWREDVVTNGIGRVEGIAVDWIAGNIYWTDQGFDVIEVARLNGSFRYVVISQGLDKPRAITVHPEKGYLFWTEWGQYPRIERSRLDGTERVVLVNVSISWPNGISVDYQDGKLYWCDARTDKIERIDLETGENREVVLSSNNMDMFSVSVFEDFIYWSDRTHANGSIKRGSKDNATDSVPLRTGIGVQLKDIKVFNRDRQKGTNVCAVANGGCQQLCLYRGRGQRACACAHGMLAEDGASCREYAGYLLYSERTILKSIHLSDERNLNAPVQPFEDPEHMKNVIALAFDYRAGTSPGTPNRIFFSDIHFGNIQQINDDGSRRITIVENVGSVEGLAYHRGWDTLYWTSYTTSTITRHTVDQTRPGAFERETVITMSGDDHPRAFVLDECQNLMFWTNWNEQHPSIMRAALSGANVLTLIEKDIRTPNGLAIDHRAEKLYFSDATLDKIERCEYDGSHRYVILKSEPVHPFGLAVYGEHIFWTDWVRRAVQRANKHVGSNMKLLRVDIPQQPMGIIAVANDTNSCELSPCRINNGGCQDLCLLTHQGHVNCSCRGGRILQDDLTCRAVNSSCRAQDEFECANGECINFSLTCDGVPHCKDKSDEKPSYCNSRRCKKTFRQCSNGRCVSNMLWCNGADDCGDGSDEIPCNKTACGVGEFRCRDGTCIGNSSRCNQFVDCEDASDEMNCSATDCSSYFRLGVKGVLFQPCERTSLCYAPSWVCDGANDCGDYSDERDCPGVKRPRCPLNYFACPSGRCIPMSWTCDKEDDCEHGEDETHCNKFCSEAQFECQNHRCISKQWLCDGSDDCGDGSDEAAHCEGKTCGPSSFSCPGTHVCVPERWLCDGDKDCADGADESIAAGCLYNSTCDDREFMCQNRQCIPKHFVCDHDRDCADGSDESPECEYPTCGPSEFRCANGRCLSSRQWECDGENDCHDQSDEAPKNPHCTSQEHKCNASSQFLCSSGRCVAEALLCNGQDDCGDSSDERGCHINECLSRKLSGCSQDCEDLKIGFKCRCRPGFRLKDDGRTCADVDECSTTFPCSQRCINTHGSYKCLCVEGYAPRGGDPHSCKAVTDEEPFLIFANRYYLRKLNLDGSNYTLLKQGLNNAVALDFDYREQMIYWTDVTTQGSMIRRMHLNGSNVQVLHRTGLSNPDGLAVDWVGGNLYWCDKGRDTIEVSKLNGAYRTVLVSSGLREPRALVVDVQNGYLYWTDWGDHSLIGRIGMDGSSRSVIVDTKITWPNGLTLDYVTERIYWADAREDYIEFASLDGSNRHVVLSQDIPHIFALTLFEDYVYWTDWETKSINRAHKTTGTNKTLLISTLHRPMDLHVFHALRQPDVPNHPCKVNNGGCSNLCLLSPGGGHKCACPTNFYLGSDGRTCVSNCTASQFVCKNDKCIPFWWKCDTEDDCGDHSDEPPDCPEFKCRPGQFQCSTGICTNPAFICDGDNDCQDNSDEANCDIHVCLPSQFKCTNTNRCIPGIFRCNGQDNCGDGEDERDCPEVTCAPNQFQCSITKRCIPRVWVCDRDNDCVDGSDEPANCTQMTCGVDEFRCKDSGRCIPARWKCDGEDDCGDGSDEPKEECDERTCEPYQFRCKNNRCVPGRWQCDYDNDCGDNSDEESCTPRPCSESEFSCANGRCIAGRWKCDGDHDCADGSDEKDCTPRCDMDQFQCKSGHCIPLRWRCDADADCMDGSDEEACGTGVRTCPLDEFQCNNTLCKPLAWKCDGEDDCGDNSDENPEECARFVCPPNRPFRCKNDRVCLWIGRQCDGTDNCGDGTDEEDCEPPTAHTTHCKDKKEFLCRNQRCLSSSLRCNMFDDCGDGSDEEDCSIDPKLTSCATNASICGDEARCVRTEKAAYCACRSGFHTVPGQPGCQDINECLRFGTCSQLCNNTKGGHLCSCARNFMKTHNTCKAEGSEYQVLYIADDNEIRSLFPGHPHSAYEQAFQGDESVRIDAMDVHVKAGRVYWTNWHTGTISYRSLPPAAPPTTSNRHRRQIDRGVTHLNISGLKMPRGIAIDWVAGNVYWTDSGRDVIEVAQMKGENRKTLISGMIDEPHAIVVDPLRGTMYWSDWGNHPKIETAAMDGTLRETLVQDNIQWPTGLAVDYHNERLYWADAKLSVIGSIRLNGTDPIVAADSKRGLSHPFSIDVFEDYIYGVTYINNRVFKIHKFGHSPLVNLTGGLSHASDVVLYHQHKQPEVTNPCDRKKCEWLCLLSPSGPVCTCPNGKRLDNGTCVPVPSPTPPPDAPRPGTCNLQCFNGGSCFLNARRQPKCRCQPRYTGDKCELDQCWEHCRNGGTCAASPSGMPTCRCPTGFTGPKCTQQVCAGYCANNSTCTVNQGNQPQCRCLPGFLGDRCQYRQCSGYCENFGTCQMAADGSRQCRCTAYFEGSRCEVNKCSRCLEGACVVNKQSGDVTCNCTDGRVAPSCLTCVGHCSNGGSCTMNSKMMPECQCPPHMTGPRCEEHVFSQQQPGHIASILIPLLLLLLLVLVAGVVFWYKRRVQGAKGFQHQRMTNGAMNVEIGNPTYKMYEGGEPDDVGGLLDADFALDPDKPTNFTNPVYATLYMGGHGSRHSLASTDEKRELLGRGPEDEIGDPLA

“MATSAPLRSLEEEVTCSICLDYLRDPVTIDCGHVFCRSCTTDVRPISGSRPVCPLCKKPFKKENIRPVWQLASLVENIERLKVDKGRQPGEVTREQQDAKLCERHREKLHYYCEDDGKLLCVMCRESREHRPHTAVLMEKAAQPHREKILNHLSTLRRDRDKIQGFQAKGEADILAALKKLQDQRQYIVAEFEQGHQFLREREEHLLEQLAKLEQELTEGREKFKSRGVGELARLALVISELEGKAQQPAAELMQDTRDFLNRYPRKKFWVGKPIARVVKKKTGEFSDKLLSLQRGLREFQGKLLRDLEYKTVSVTLDPQSASGYLQLSEDWKCVTYTSLYKSAYLHPQQFDCEPGVLGSKGFTWGKVYWEVEVEREGWSEDEEEGDEEEEGEEEEEEEEAGYGDGYDDWETDEDEESLGDEEEEEEEEEEEVLESCMVGVARDSVKRKGDLSLRPEDGVWALRLSSSGIWANTSPEAELFPALRPRRVGIALDYEGGTVTFTNAESQELIYTFTATFTRRLVPFLWLKWPGTRLLLRP [TRIM26]”: the thermal stability score was determined as 0.882 in data set [1] (setting [5]) and 3.9 in data set [1] (cell cycle stage: mitosis). Further, the “solubility change mitosis (log2)” value in data set [2] is -0.225. In data set [3], the “solubility in G1/S (log2)” value was -1.13. The substance also had a melting temperature in data set [4] (cell cycle stage: G1/S) of 51.2 °C.
Turning to “MAKGDPKKPKGKMSAYAFFVQTCREEHKKKNPEVPVNFAEFSKKCSERWKTMSGKEKSKFDEMAKADKVRYDREMKDYGPAKGGKKKKDPNAPKRPPSGFFLFCSEFRPKIKSTNPGISIGDVAKKLGEMWNNLNDSEKQPYITKAAKLKEKYEKDVADYKSKGKFDGAKGPAKVARKKVEEEDEEEEEEEEEEEEEEDE [HMGB3]”, the thermal stability score in data set [1] (setting [5]) turned out to be 1.34; in data set [1] (cell cycle stage: mitosis), 0.604. Further, the “solubility change mitosis (log2)” value in data set [2] is 0.349. Also, the “solubility in G1/S (log2)” value in data set [3] came out at 0.667. Also, the melting temperature amounted to 57 °C in data set [4] (cell cycle stage: G1/S) and 57.3 °C in data set [4] (cell cycle stage: mitosis).
For “MADSELQLVEQRIRSFPDFPTPGVVFRDISPVLKDPASFRAAIGLLARHLKATHGGRIDYIAGLDSRGFLFGPSLAQELGLGCVLIRKRGKLPGPTLWASYSLEYGKAELEIQKDALEPGQRVVVVDDLLATGGTMNAACELLGRLQAEVLECVSLVELTSLKGREKLAPVPFFSLLQYE [APRT]”, the thermal stability score in data set [1] (setting [5]) amounted to 3.79; in data set [1] (cell cycle stage: mitosis), 2.38. In addition, in data set [2], the “solubility change mitosis (log2)” value is -0.0341. Also, the “solubility in G1/S (log2)” value in data set [3] was determined as 0.361. In addition, the melting temperature in data set [4] (cell cycle stage: G1/S) stood at 57.1 °C; in data set [4] (cell cycle stage: mitosis), 55.8 °C.
Regarding “MGKLRRRYNIKGRQQAGPGPSKGPPEPPPVQLELEDKDTLKGVDASNALVLPGKKKKKTKAPPLSKKEKKPLTKKEKKVLQKILEQKEKKSQRAEMLQKLSEVQASEAEMRLFYTTSKLGTGNRMYHTKEKADEVVAPGQEKISSLSGAHRKRRRWPSAEEEEEEEEESESELEEESELDEDPAAEPAEAGVGTTVAPLPPAPAPSSQPVPAGMTVPPPPAAAPPLPRALAKPAVFIPVNRSPEMQEERLKLPILSEEQVIMEAVAEHPIVIVCGETGSGKTTQVPQFLYEAGFSSEDSIIGVTEPRRVAAVAMSQRVAKEMNLSQRVVSYQIRYEGNVTEETRIKFMTDGVLLKEIQKDFLLLRYKVVIIDEAHERSVYTDILIGLLSRIVTLRAKRNLPLKLLIMSATLRVEDFTQNPRLFAKPPPVIKVESRQFPVTVHFNKRTPLEDYSGECFRKVCKIHRMLPAGGILVFLTGQAEVHALCRRLRKAFPPSRARPQEKDDDQKDSVEEMRKFKKSRARAKKARAEVLPQINLDHYSVLPAGEGDEDREAEVDEEEGALDSDLDLDLGDGGQDGGEQPDASLPLHVLPLYSLLAPEKQAQVFKPPPEGTRLCVVATNVAETSLTIPGIKYVVDCGKVKKRYYDRVTGVSSFRVTWVSQASADQRAGRAGRTEPGHCYRLYSSAVFGDFEQFPPPEITRRPVEDLILQMKALNVEKVINFPFPTPPSVEALLAAEELLIALGALQPPQKAERVKQLQENRLSCPITALGRTMATFPVAPRYAKMLALSRQHGCLPYAITIVASMTVRELFEELDRPAASDEELTRLKSKRARVAQMKRTWAGQGASLKLGDLMVLLGAVGACEYASCTPQFCEANGLRYKAMMEIRRLRGQLTTAVNAVCPEAELFVDPKMQPPTESQVTYLRQIVTAGLGDHLARRVQSEEMLEDKWRNAYKTPLLDDPVFIHPSSVLFKELPEFVVYQEIVETTKMYMKGVSSVEVQWIPALLPSYCQFDKPLEEPAPTYCPERGRVLCHRASVFYRVGWPLPAIEVDFPEGIDRYKHFARFLLEGQVFRKLASYRSCLLSSPGTMLKTWARLQPRTESLLRALVAEKADCHEALLAAWKKNPKYLLAEYCEWLPQAMHPDIEKAWPPTTVH [DHX37]”, the thermal stability score in data set [1] (setting [5]) was determined as 0.32; in data set [1] (cell cycle stage: mitosis), 0.922. Also, the “solubility change mitosis (log2)” value in data set [2] came out at 0.635. The “solubility in G1/S (log2)” value in data set [3] is -1. In data set [4] (cell cycle stage: G1/S), this substance had a melting temperature of 50.3 °C.
LRP1: the thermal stability score in data set [1] (setting [5]) is -1.09; in data set [1] (cell cycle stage: mitosis), -1.22. In addition, in data set [2], the “solubility change mitosis (log2)” value was -0.0628. Further, the “solubility in G1/S (log2)” value in data set [3] is -0.0261. For the same substance, the results for the melting temperature in data set [4] (cell cycle stage: G1/S) and in data set [4] (cell cycle stage: mitosis) were 55.5 °C and 55.1 °C, respectively.
